Assay results as given in the supplement of paper PMC9942255.

Test system: Bacillus subtilis DB104 (SP-AmyQ fusion secretion)
Assay: AmyQ secretion efficiency, weighted average sort bin (1 = best secretion, 10 = worst) (bin number (weighted average, 1-10)); higher = lower secretion efficiency
In short: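 Secretion score gives the read-frequency-weighted average bin number, normalised to beads per bin, with low-abundance sequences left out. A B. subtilis DB104 library expressing mature AmyQ fused to designed signal peptides, integrated at amyE, was encapsulated with fluorescein-starch at about 0.3 cells per ~65 nL alginate bead. Beads were grown about 13 h at room temperature, stained with nile red, and the occupied ones were sorted by large-particle flow cytometry into 10 equally populated bins by green/red fluorescence ratio before the amplicons from each bin were Illumina-sequenced.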

Sequence	AmyQ secretion efficiency
MKKTRQTLVILGALGTSYISADSS	5.19
MKVCQKSIVRFRKRRIIGTFVISVPFMANAQSD	7.62
MLKKKWMVGLLAGCLAAGGFSYNAFKTEN	5.95
MRKKCSVCRRKKVLLLSCLSGKSAYAATS	7.48
MMKKLFHSTLIVLLFFSFFGVQPCHAKKQ	1.69
MRKKKRKLLLATSALTFSLSLVLPLDGHAKAQEV	2.13
MKVLLSALLLLLFAFEPSASDKKL	6.18
MRMLWRGQKSCGTYLTLAPCAQAAEP	7.51
MKVLLSALLLLLFAFEPSISGKKL	7.18
MKKAAAVLLSLGLVFGFSYGAGHVAESKTK	4.52
MKRMIVRMTLPLLIVCLAFSSFSASARAASF	1.55
MKKAAAVLLSLGLVFDKGYEPGHVAEAKTK	2.85
MKKAAAVLLSLGLVFGFSYGAGHVAELKTK	6.97
MKKLIVLLFFSFFGVQPIHAKKQ	5.47
MSLITFSLIITSAIIIAIIAAVIVIAALITFNVRNASPG	7.04
MLKRTSFVSSLFISSAVLLSILLPSGQGHAQSA	1.31
MRKKTKNRLISSVRKTVVISSLLFPGAAGASSK	4.05
MARRRRRKAAVIVIAALITFNVRNASPG	6.9
MKLKSKLLLSCLALSTVFVATTIANLPTH	6.34
MGLGKKNLNTMFLSVAVAASFMSLSISLPGVQAAEG	2.66
MKKELLASLVLCLSLKRRKRTNRVFAATT	7.57
MKRTWNVCLTALLSVLLVAGSVPFHAEAAPK	2.29
MKKMKKSGKRFLLALTIHVGEASAVIV	6.51

Sequence	AmyQ secretion efficiency
MKKKLAAGLTASAIVGTTLVVTPYEAATI	5.36
MRKNRILALFVLSLGLLFSFMVTPVSAASK	1.99
MRNLTKTSLLLAGLCTAAQMVFVTHASSEES	4.13
MGMKKKLSLGVASAALGLALVGGGWWAAFN	7.18
MGLGKKGTYRVAASFMSLSISLPGVQAAEG	4.07
MRKKRVITCVMAASLTLGSLLPAGYATADDE	4.08
MKKRKQRPRLLSAASLAFFAMSGSAQAAAY	6.55
MMIKQCVICLSLLVFGTIAIAHAEET	4.16
MFKKLLLATSALTFSLSLVLPLDGHAKAQED	2.98
MKVPKTMLLSTAAGLLLSLDPTSVSAHYV	3.57
MKKAAAVLLSLGLVFKFSYGAGHVAEAKTK	3.2
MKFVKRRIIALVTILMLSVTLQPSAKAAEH	3.15
MRPVFPLILSAVLFLSCFFGARQTEASVSKR	2.77
MKKAAAVLLSLGLVFGFSYGAGHVAEKKTK	6.23
MKRLFMKASLVLFAVVFVFAVKGAPAKAADD	3.6
MKVLLSALLLLLFAFEPSLSGKKL	6.45
MPIKKKVMMCLAVTLVFGSMRRKTLTNSGGFKE	7.75
MIFTIVVGFLSVLGLAAVFPLTAQAEKA	2.34
MRPVFPLILIAVLFLFCFSFGARQTEASASKR	2.07
MGLGKKLSVAVAASFMSLSISLPGGPAVQAAEG	1.61
MTKKAWFLPLVCVLLISGWLAPAASASAQTD	1.97
MKTKTLFIFSAILTLSIFAPNECFAQTA	2.92
MKKIWIGMLAAAVLLLMVPKVSLAAAD	5.09

Sequence	AmyQ secretion efficiency
MKKAFILSAAAAVGLFTFGGVQQASEKEL	6.66
MKKVLMAFIICLSLILSVLAAPPSGAKLESV	8.94
MTGGSAVLLSLIMLIAGFLISFSFQM	7.63
MLKKIALTLCPAIVGSLLFFTAPPSAHVS	6.86
MMFMFLLCVMMLLFSAIASFPVSAQAKDQ	6.02
MKRIRIPMTLALGAALTIAPLSFASFEEN	6.34
MKLSVKIAGVLTVAAAAMRKRKKRATAKGN	7.22
MKKRLIAPMLLSAASLAFFAMSGSMQAAAY	5.75
MLKRTSFVSSLFISSAVLLSILTPDGQAHAQSA	1.39
MTMLRKIIGWILLLCIIPLFAFTVIVSGKEV	5.52
MKKTMTIGLLFMLCLAALFTIGFPAQQADAAEA	2.9
MKSKGSIMACLILFSFTITTFINTETCSAFSN	4.49
MKKAFILSAAAAVGLFTFGGVQQFSAKEL	5.1
MKKAAAVLLSLGLVFGFSYGAGHVNEAKTK	5.96
MKLKKRVSMFLVALTMCGGLFVITVFTAVFTPAKAVKT	7.26
MRSYIKVLTMCFLGLPTALADNS	3.96
MHLIRQSQGYCQYTVLIAGCRFNEDQHQAEGENT	6.47
MKRKKIMIFLTSFMLLAMTGQTALAKDV	3.1
MIAYFGKCLLLVTIMFLGVLFGMQQGNHG	5.32
MKRKKLLVSLRVWMVFLMNWVTPDRKTAAAAVY	7.43
MKRRFMKASLVLFAVVFVFAVKGAPAKAETH	2.6
MKKKLAAGLTASAIVGTTLVVTPAEAATR	2.36
